The DeepSol protein solubility set

Assay: soluble on expression in E. coli; label from the status in PepcDB or PDB records

Row | Sequence | soluble on expression in E. coli
1 | MFQVQKELASHEAVVVALFEEEKTSSFVQELDKAFEGQLQVLLEEKELSTKKKAISKVHSLGKTDVKRYYFVGLGKKESYTTETLRSALGKTFKTLQAAKVQDAAILLDSFVTEKLDAIDVAHIAAEVQGLGTYELQTYKSDKKDRVELEKFTAITAEDAQEIEAALTVGYVHGRATNSARTLVNMPPNVLTATKLAEYAVELAEKYDMDYKVLEKEEMEELGMGALLAVNQGSVEPPKMIALIYKGKEEWTDVIGFVGKGITYDTGGYSLKPREGMVGMKGDMGGAAAVLGAMEIIGELRPEQNVIAVIPSTDNVVSGTAFKPDDVITSMSGKTIEVLNTDAEGRLALADGITYAKKLGANYLIDVATLTGGVIVALGNHTTGAMTNNEELFEQVLEASMETDESIWQLPIFDRDKERVRNSKFADLNNSPGREGHAVMAGTFIGEFAEDTPWVHLDIAGTSESSGAHDLGPAGATGAMVRTLATLVERFGEE | not soluble
2 | MFRNAAELVAQAKEQNVKIAEIMIQCEMETRSISREEVIAGMEKNLVVMEQAVERGIRGVKSPTGLTGGDAVKVQAYMKSGKGLSGDTILDAVSKAVATNEVNAAMGIICATPTAGSAGTVPGVLFALREKLQPTREEMIEFLFTAGAFGMVVANNACISGAAGGCQAEVGSASGMAAAAAVEMAGGTQEQAATAMAISLKNMLGLVCDPVAGLVEVPCVKRNAAGAANAMISADLALAGVTSTIPCDEVIEAMFRIGQTMPVALRETAEGGLAATPTGRRLQEEIFGKTNN | not soluble
3 | MFRRIPLGRFLTRKIHNQTNGLIVPTTNVQKQQKRQILFKMGNETPARVVGYYVVFPVIPEETVENNCFMYNIAKNEDWPKLATAEPRELYEGTVRMLMDYGATVMEHMEHLATLPAEERKFENVVEPLLTEEYEVNFAFQTLVLKMLTDWPDCNRKLFDADLHHIKIMCARDQMEKLTNKDFQDAIKQLYEAKDGLSEWQSRLLEWYLLEIKASGLDKHDDKTRKVLGSWSKFVDEYRSKYITGVMSTNDQQTFVVTDQKVIKDAPPHVLQKLAVDEQNWESGPWRGRMTPHTIYPFMQYCGDRQLRATAWEKWTSKAGFDHDFYNNSINIEELRHNNEGLAKTLGYSSVAEHRLANKMAASPETVRGFINALQRRIRPVVIDRMESWSAWAGRCELITGELQAYDMPYVCRKEAEHHYEFFFQLKSSNFSFFRVNPLDLMNHFPFWPTFQNIMGVIGHIFNLEFKDITDKGLEKAHADVRIYSVGDKFSGQHYGRLYIDPYDRQNKRGGWNVMLARPESKERGLDKIVYFIGSAIAPTSNGPSLLHHQQLQQLLFHFGRSVQLLLSQSPYRDISIPWSPFYASDWDAADMFPTFLQMFVTKPNLLATISSPHQITKQSLTEEHANSVALTISRASLWETYRTLFWSDFDLSIYEMEDRKQKFWLDMYKQMYEEYFPFKRAKNDYQPCSFTPIFALQPHMSMYYRKLWAEMLALDIHETFDEEDNEVQTGERLKTTILNRGSGDVAKELFKRFQGRNPSVGAICDHYAPPMAIQDEMEMSENQRR | not soluble
4 | MFRSVVVSVRQPAVAGYFYPDDPLTLKQTVLNFLDQAPIHKPAPKAILVPHAGYVYSGAVAASAYASLRDKKDTINKIILLGPAHRLYFKGIAYDPVDKFATPLGEIDQDKELLTQIIDLPYVYSLPEAHQNEHCLEVQLPFCQMIFSKFKILPLVIGETNPQDVARLIARIWGGDDTLLIISSDLSHYLPYHIAQREDKKTCLSIDTLNGEEILHDAACGYFPLRGFLYFGRQNHVYSRLLDLRNSGDTAGDKERVVGYAAYHFYQKLKFSEHCADELKYIAKETIRLQTEENKALTINYNDYSQLLQMRVPTFITLKKNGMLRGCMGSLTTKDPLAENIIYNSIRAASADPRFPQIKPCELKELSLTISLIKPLSPLHFDSEEELKSQLQIGLDGLVLICGPYQATFLPSVWESVKTKDEFINHLKLKMGLSENFWSSEMRALRYATEIIKLEHHHHHH | not soluble
5 | MFRWLFQSEGVTRSFDTPSETQSARDDRKTIGDYADNFLLFDLVMGEVEMAVIRFEIEKEEKEEAERKAERRPDYSWLISGNMNRARKQLSINEKNRIENACERLKPCEWSKTIDTWKIKTQNPSTRDQIIENFVIATHETIQSRKHEPTITEVLKNFATGRSGSLHTVSHGELPRVGSGRNISELSFIELQEMV | not soluble
6 | MFSAPLENTMLCNMGGSHEKARARENERMRERERGKEQRTYFATGSLARCQAGSVRRAPGTRRHPGSSTVQGFGTVVSLEANKEMKKEETFFFASLFLYRLGGPLTGTVGYANKTTGR | not soluble
7 | MFTAKCAMQNIRNVAIVGSGQMGSGIAQVTASSGFNVMLADVNKKALDRAMKAISQSVTHLSKKQKGTDKEKSDFVTLTMSRIKTCNNVSTAVADADLIIEAAIENIDLKRGIFAQIEQSCKKDSILTTNTSSFLLEDVAKGLQDKTRFGGLHFFNPVPVMKLLEVIRSDDTSDETYATLIKFGTAVGKTTVACKDSPGFIVNRLLIPYFFEAARMYERGDASMTDIDEAMKLGAGHPMGPFELADYIGLDTVKFVMDGWAAKYPEVQLFEASPLVDKLVAEGKLGRKTGDGFYSYKK | not soluble
8 | MFTGSIVALVTPMDEKGNVSRSCLKKLIDYHVANGTSAIVSVGTTGESATLSHDEHGDVVMMTLELADGRIPVIAGTGANATAEAISLTQRFNDSGIVGCLTVTPYYNRPTQEGLFQHFKAIAEHTDLPQILYNVPSRTGCDMLPETVGRLAEIKNIIAIKEATGNLTRVHQIKELVSDDFILLSGDDASALDFMQLGGHGVISVTANVAAREMADMCKLAAEGQFAEARAINQRLMPLHNKLFVEPNPIPVKWACKALGLVATDTLRLPMTPITDHGRDIVKAALQHAGLL | not soluble
9 | MFTIKTDDLTHPAVQALVAYHISGMLQQSPPESSHALDVQKLRNPTVTFWSVWEGEQLAGIGALKLLDDKHGELKSMRTAPNYLRRGVASLILRHILQVAQDRCLHRLSLETGTQAGFTACHQLYLKHGFADCEPFADYRLDPHSRFLSLTLCENNELP | soluble
10 | MFVELNNLLNTTPDRAEQGKLTLLCDAKTDGSFLVHHFLSFYLKANCKVCFVALIQSFSHYSIVGQKLGVSLTMARERGQLVFLEGLKSAVDVVFQAQKEPHPLQFLREANAGNLKPLFEFVREALKPVDSGEARWTYPVLLVDDLSVLLSLGMGAVAVLDFIHYCRATVCWELKGNMVVLVHDSGDAEDEENDILLNGLSHQSHLILRAEGLATGFCRDVHGQLRILWRRPSQPAVHRDQSFTYQYKIQDKSVSFFCQRNVSCCSVT | soluble
11 | MFYDGYAYHGTTFEQTYRCYPSSFIDKPQIESGDKIIMPPSALDRLASLQIDYPMLFELRNASTDSFSHCGVLEFIAEEGVIYIPYWMMQNLLLQEGDMVRVRNVTLPKGTYVKLQPHTTDFLDIANPKAILETALRNYSCLTVGDSIMVPYNNKKYFIDIVEAKPSNGISIIETDCEVDFAPPLDYKEPERPVAPAPAKGEAKAKEVDVAEAEPKFNPFTGSGRRLDGRPLSYEPQPGAANSNGQSHPVASSSSSGSEKATQQNRGKLVFGSNVERSTKETTKVGAGKDRKQEEEAEKEAKFQAFSGKKYSLRG | soluble
12 | MGADGGTIPKRCELVKERKKKEKLDKHVKNATKWRNCQLTQLPLKRPVIACRFGKLYNKEDVINSILSKTISKSASASHIKGPKDFVELKLTLNKDFKRGDVKGDDYNDVNQTEFICPITNVPMNGIQSFLVNWQCGCVYSEKAQQEVKSSNCHVCGGPYDATKMVILNPEPEQLELYKLKWEAEKAEKAAAKKDKAKKTAEKMEAAASLAAGSGGEASSVAPGPSGSGVGKHVDLKKKLEIAKLTGGSTSEKKAEKRKANTDIQSDPTTSDTYKKLFTTCEAAKNKTEGHWVTYNPLYY | soluble
13 | MGAEGRLYWDEGEGEGPYRLDRFRLLPAEGGFRLLWQGKGELPWPWARVRLRLFGKRLLRAHVEGEAHAAEEGGVLLPPFREALLEVEGLEHHHHHH | not soluble
14 | MGAFFVGAIWLTAAEAFCPAPKGLLPATVLRVVDGDTLHLKDGRRLRMIGLNAPELAGKGRPAEPFAEAARQRLRQLVAQSGGRVGLLPGRERQDRYGRVLAHVYGVTGINFEARLIAEGLAYRIAVLPNVALASCQKAAENHARRAGLGLWRRSPVLKAQQIHRAGFALFEGRVSRVQRNRGGLWITLQGQVVLRIAPNVLRRFDRRLLSGLSGRRIEARGWVVDRSRQPGRQSAHPRWMLSVTDPSMLGLILEHHHHHH | not soluble
15 | MGAFLDKPKMEKHNAQGQGNGLRYGLSSMQGWRVEMEDAHTAVIGLPSGLESWSFFAVYDGHAGSQVAKYCCEHLLDHITNNQDFKGSAGAPSVENVKNGIRTGFLEIDEHMRVMSEKKHGADRSGSTAVGVLISPQHTYFINCGDSRGLLCRNRKVHFFTQDHKPSNPLEKERIQNAGGSVMIQRVNGSLAVSRALGDFDYKCVHGKGPTEQLVSPEPEVHDIERSEEDDQFIILACDGIWDVMGNEELCDFVRSRLEVTDDLEKVCNEVVDTCLYKGSRDNMSVILICFPNAPKVSPEAVKKEAELDKYLECRVEEIIKKQGEGVPDLVHVMRTLASENIPSLPPGGELASKRNVIEAVYNRLNPYKNDDTDSTSTDDMWLEHHHHHH | soluble
16 | MGAQGSRVDFKQVVLDVTSKPGKDDETFWDQAWWPDSVNEIFAMISGEDIRKLRDESPKNLATLVYKTVEKLQFSRNHPATIDQKKTINAIRLLTRIVPYLLEDAEWRGYFWSPIPHGDAAKPLAAVLLETLSDLLFCPEFTITHANGQKIDDLSTIDSCEYIWEAGVGSGNKPPMVALHYQNRTEILKLLLTCFAELIYAPVSDETRLRWVIHFTSVTNPHVLPIFTSLLNIVCAYDPVGYGLPYNYLLFNDSREPLVEIALQVLIVCLDKETQPNTDDSGYKDNYFINYLSRIHREEDFDFMLKGITRLLSNPIHSSSSYLPNSTKRVNFHQELLVLLWKCCEINQKFMFYVLKTSDVLDILVPILYHISDARNDSGRVGLIHMGVFIILLLSGERNFGVRLNKPYTAKANINVQTFTGTHADLLILVIHKLITTGNYRLQTLFDCFLTIMVNVSPYMKSLSMVAANKLVHLVEAFSTPWFLFSSPTNPQLVFSLLEVFNNVIQYQFDGNSNLIYTIIRKRNVFYQLSNLSTDAASIAKTLSGRKSKSANRDEMVDQLKSPTSTAPPEIPAADAPAAQTLGGVSTTTGLAATPALASMTGNVGNWEERPESSQDNEWIATQEWADAWKSKLPLQTIMRLLQVLVPQVEKICIDKGLTDESEILKFLQHGTLVGLLPVPHPIVIRRYQTNIGTNHWFRIYMWGVIYLKHTQPPIWYDTDVKLFEVQRA | not soluble
17 | MGAQVSTQKTGAHETGLRASGNSIIHYTNINYYKDAASNSANRQDFTQDPGKFTEPVKDIMVKSLPALN | soluble
18 | MGCFFSKRRKADKESRPENEEERPKQYSWDQREKVDPKDYMFSGLKDETVGRLPGTVAGQQFLIQDCENCNIYIFDHSATVTIDDCTNCIIFLGPVKGSVFFRNCRDCKCTLACQQFRVRDCRKLEVFLCCATQPIIESSSNIKFGCFQWYYPELAFQFKDAGLSIFDNTWSNIHDFTPVSGELNWSLLPEDAVVQDYVPIPTTEELKAVRVSTEANRSIVPISRGQRQKSSDESCLVVLFAGDYTIANARKLIDEMVGKGFFLVQTKEVSMKAEDAQRVFREKAPDFLPLLNKGPVIALEFNGDGAVEVCQLIVNEIFNGTKMFVSESKETASGDVDSFYNFADIQMGILEHHHHHH | soluble
19 | MGCVSSKSTTVLSPQTSFNEASRTSFRALPGPSQRQLEVYDQCLIGAARWPDDSSKSNTPENRAYCQSMYNSIRSAGDEISRGGITSFEELWGRATEWRLSKLQRGEPLYSAFASERTSDTDAVTPLVKPYKSVLARVVDHEDAHDEIMQDNLFGDLNVKVYRQTAYLHGNVIPLNTFRVATDTEYLRDRVAHLRTELGAKALKQHLQRYNPDRIDHTNASYLPIIKDHLNDLYRQAISSDLSQAELISLIARTHWWAASAMPDQRGSAAKAEFAARAIASAHGIELPPFRNGNVSDIEAMLSGEEEFVEKYRSLLDSDCFGTGHHHHHH | soluble
